Key:
[1] = target: SARS-CoV-2 spike (S) protein, full-length, expressed on the surface of HEK-293T cells (SARS-CoV-2 prototype (MN908947.3), UniProt P0DTC2); assay: flow cytometry on cells; conditions: one partner purified
[2] = target: SARS-CoV spike (S) protein expressed on HEK-293T cells (SARS-CoV, GenBank AY278554.2, UniProt P59594); assay: flow cytometry on cells; conditions: one partner purified
[3] = target: PANG/GD spike (S) protein expressed on HEK-293T cells (Pangolin coronavirus Guangdong …, strain); assay: flow cytometry on cells; conditions: one partner purified
[4] = target: WIV1 spike (S) protein expressed on HEK-293T cells (Bat SARS-like coronavirus WIV1 …, UniProt U5WI05, strain); assay: flow cytometry on cells; conditions: one partner purified
[5] = target: HKU3 spike (S) protein expressed on HEK-293T cells (Bat SARS-like coronavirus HKU3, GenBank …, UniProt A0A7G6UAJ9, strain); assay: flow cytometry on cells; conditions: one partner purified
[6] = target: T1, GST-fused truncated S2 protein S2 (T1076-H1159) (SARS-CoV-2 prototype (MN908947.3), UniProt P0DTC2); assay: far-Western, overlay or dot blot; conditions: both partners purified
T1 construct: not shown: GST, N-terminal, kept

[7] = target: S2 (T1076-Q1208) protein as coated in ELISA (devoid of the His tag) (SARS-CoV-2, MN908947.3, UniProt P0DTC2); assay: ELISA; […], room temperature; […]; conditions: both partners purified
[8] = target: T2, GST-fused truncated S2 protein S2 (D1139-L1152) (SARS-CoV-2, MN908947.3); assay: ELISA; […], room temperature; […]; conditions: both partners purified
T2 construct: not shown: GST, N-terminal, kept
T2 chain: DPLQPELDSFKEEL

[9] = target: T3, GST-fused truncated S2 protein S2 (P1140-D1153) (SARS-CoV-2, MN908947.3, UniProt P0DTC2); assay: ELISA; […], room temperature; […]; conditions: both partners purified
T3 construct: not shown: GST, N-terminal, kept
T3 chain: PLQPELDSFKEELD

[10] = target: T4, GST-fused truncated S2 protein S2 (P1140-L1152) (SARS-CoV-2 prototype (MN908947.3), UniProt P0DTC2); assay: ELISA; […], room temperature; […]; conditions: both partners purified
T4 construct: not shown: GST, N-terminal, kept
T4 chain: PLQPELDSFKEEL

[11] = target: T5, GST-fused truncated S2 protein S2 (L1141-L1152) (SARS-CoV-2 prototype (MN908947.3), UniProt P0DTC2); assay: ELISA; […], room temperature; […]; conditions: both partners purified
T5 construct: not shown: GST, N-terminal, kept
T5 chain: LQPELDSFKEEL

B1: nanobody H17 (VHH)
VHH: EVQVVESGGGLVQTGGSLRLSCAASGSAFSSYAVNWYRQAPGKQREPVAAIGSFNTVYSDSVKGRFTISRDNAKNTVYLQMNSLKPEDTAVYVCNARRGATNYWGQGTQVTVSP
notes: also called anti-SH nNb H17; not shown: His6, C-terminal, kept
no binding (tested: 200 nM): binding result [9] | binding result [10] | binding result [11]
binds: binding result [1] | binding result [2] | binding result [3] | binding result [4] | binding result [5] | binding result [6] | binding result [7]
11.3 nM: EC50 [8]

Reference: article PMC12052392 (PLOS Pathogens, 2025)
